Source: patent US12280159B2, “Therapeutic protein-based nanoparticles for treating cancer” (THE REGENTS OF THE UNIVERSITY OF MICHIGAN, priority 2020, dated 2025)

Experiments:
[1] = tested on: draining lymph nodes (F4/80+ macrophages, B220+ B cells, CD11c+ DCs); parameters: species or system C57BL/6 mice; conditions: mouse, in vivo, sc
Experimental: OVA pNPs delivery to lymph nodes. Next, the pNPs targeting of the draining lymph nodes using AlexaFluor 647-labeled pNPs was evaluated. OVA pNPs of varying PEG/OVA ratio (10, 30, 50%) and size (200 nm, 500 nm) were injected subcutaneously at the tail base of C57BL/6 mice (10 μg OVA/100 μL dose). The inguinal draining lymph nodes were harvested 48 hours after injection. Single-cell suspensions from the draining lymph nodes were prepared and pNPs uptake among the different populations of antigen-presenting cells were analyzed (dendritic cells, macrophages and B cells) using flow cytometry by comparing the MFI values of the cells. […] In the past, many different particle sizes have been studied with respect to their lymphatic drainage. It has been shown that particles exceeding 500 nm can be trapped at the injection site. Nanoparticles smaller than 10 nm, or soluble antigen, diffuse into the lymphatic system easily, but their retention time in the lymph nodes is too short to provide sustained antigen delivery. […] For smaller pNPs sizes, improved uptake is observed for pNP with lower PEG/OVA ratio.

B16F10-OVA melanoma = assay: Therapeutic efficacy in murine B16F10-OVA melanoma model; format: in vivo, C57BL/6 mice; conditions: treated days 7 and 14 with CpG
Experimental: Therapeutic efficacy of pNPs in a model of melanoma. Encouraged by the fact that OVA pNPs with 10% PEG/OVA ratio result in increased OT-I CD8+ cell proliferation in vitro, improved uptake by APCs (both in vitro and in vivo), and enhanced humoral immune response in vivo, a murine model of B16F10-OVA melanoma was employed to evaluate the therapeutic efficacy of pNPs with a PEG/OVA ratio of 10% compared to solute OVA. Tumor-bearing mice were treated with 10% PEG/OVA pNPs or solute OVA (10 μg OVA/100 μL dose), co-administered with CpG (15 μg/dose). Following the regimen shown in FIG. 9A, C57BL/6 mice (10 mice/treatment group) were inoculated with 1×10^5 B16F10-OVA cells in the SC flank on day 0. Treatments with either 10% PEG/OVA pNPs or solute OVA were initiated on day 7 after tumor inoculation. A second treatment was given on day 14. Mice were euthanized after their tumors reached 15 mm in any dimension. […] More than 50% of mice treated with solute OVA were euthanized due to large tumor burden on day 20, and 100% of the mice were euthanized on day 21.

B1: ovalbumin (protein, UniProt P01012 2-386, looked up)
Ovalbumin: GSIGAASMEFCFDVFKELKVHHANENIFYCPIAIMSALAMVYLGAKDSTRTQINKVVRFDKLPGFGDSIEAQCGTSVNVHSSLRDILNQITKPNDVYSFSLASRLYAEERYPILPEYLQCVKELYRGGLEPINFQTAADQARELINSWVESQTNGIIRNVLQPSSVDSQTAMVLVNAIVFKGLWEKAFKDEDTQAMPFRVTEQESKPVQMMYQIGLFRVASMASEKMKILELPFASGTMSMLVLLPDEVSGLEQLESIINFEKLTEWTSSNVMEERKIKVYLPRMKMEEKYNLTSVLMAMGITDVFSSSANLSGISSAESLKISQAVHAAHAEINEAGREVVGSAEAGVDAASVSEEFRADHPFLFCIKHIATNAVLFFGRCVSP
notes: soluble ovalbumin antigen used as control
- MFI of lymph node cells / delivery to draining lymph nodes [1]: not delivered to the lymph nodes efficiently
- mice euthanized due to large tumor burden (B16F10-OVA melanoma; day 20): More than 50%
- mice euthanized (B16F10-OVA melanoma; day 21): 100%
- animal survival (B16F10-OVA melanoma): slightly better survival
